Consider two molecules from PMC4787773.

In the series the target is hnRNPK (human, UniProt P61978 1-463). As to the kind of experiment: EMSA. On the technique in general: Mobility shift assays separate free from complexed probe on a gel.

Turning to GGGGCCGGGGCCGGGGCCGGGGCCGGGGCCGGGGCCGGGGCCGGGGCC (structured_DNA, 5-methylcytosine at each CpG) [d(GGGGCC)8 5mCpG], the binding result is reported as “no binding”.

Consider GGGGCCGGGGCCGGGGCCGGGGCCGGGGCCGGGGCCGGGGCCGGGGCC (structured_DNA, 5-hydroxymethylcytosine at each CpG) [d(GGGGCC)8 5hmCpG], for which the binding result is “no binding”.
